Results published in IntAct's records for PubMed 26388029.

B1: Ubiquitin carboxyl-terminal hydrolase 1 (Homo sapiens), O94782 (parent)
chain: MPGVIPSESNGLSRGSPSKKNRLSLKFFQKKETKRALDFTDSQENEEKASEYRASEIDQVVPAAQSSPINCEKRENLLPFVGLNNLGNTCYLNSILQVLYFCPGFKSGVKHLFNIISRKKEALKDEANQKDKGNCKEDSLASYELICSLQSLIISVEQLQASFLLNPEKYTDELATQPRRLLNTLRELNPMYEGYLQHDAQEVLQCILGNIQETCQLLKKEEVKNVAELPTKVEEIPHPKEEMNGINSIEMDSMRHSEDFKEKLPKGNGKRKSDTEFGNMKKKVKLSKEHQSLEENQRQTRSKRKATSDTLESPPKIIPKYISENESPRPSQKKSRVKINWLKSATKQPSILSKFCSLGKITTNQGVKGQSKENECDPEEDLGKCESDNTTNGCGLESPGNTVTPVNVNEVKPINKGEEQIGFELVEKLFQGQLVLRTRCLECESLTERREDFQDISVPVQEDELSKVEESSEISPEPKTEMKTLRWAISQFASVERIVGEDKYFCENCHHYTEAERSLLFDKMPEVITIHLKCFAASGLEFDCYGGGLSKINTPLLTPLKLSLEEWSTKPTNDSYGLFAVVMHSGITISSGHYTASVKVTDLNSLELDKGNFVVDQMCEIGKPEPLNEEEARGVVENYNDEEVSIRVGGNTQPSKVLNKKNVEAIGLLGGQKSKADYELYNKASNPDKVASTAFAENRNSETSDTTGTHESDRNKESSDQTGINISGFENKISYVVQSLKEYEGKWLLFDDSEVKVTEEKDFLNSLSPSTSPTSTPYLLFYKKL

Variants of: B1
Conditions: with WDR48, Q8TAF3-1
WDR48, Q8TAF3-1, sequence (Q8TAF3 whole entry): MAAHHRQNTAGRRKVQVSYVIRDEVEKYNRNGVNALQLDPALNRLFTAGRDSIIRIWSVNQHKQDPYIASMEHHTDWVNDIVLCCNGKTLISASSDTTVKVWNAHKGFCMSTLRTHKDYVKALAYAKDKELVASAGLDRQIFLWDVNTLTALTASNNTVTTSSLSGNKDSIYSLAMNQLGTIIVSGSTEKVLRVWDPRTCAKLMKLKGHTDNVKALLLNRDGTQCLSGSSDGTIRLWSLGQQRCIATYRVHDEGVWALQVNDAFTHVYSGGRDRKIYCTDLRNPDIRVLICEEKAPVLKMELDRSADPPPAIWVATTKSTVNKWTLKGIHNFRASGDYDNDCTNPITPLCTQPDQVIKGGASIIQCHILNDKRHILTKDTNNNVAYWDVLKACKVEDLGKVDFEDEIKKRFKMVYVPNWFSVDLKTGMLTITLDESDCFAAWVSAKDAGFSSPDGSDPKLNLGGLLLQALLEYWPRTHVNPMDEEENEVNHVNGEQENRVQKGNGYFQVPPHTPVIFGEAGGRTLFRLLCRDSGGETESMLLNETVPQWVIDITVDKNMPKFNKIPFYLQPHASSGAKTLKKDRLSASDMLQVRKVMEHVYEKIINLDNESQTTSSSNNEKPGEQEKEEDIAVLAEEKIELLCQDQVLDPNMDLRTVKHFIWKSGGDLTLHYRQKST

| Variant | effect of a mutation on the interaction |
| --- | --- |
| E444K | disrupting interaction strength |
